Measured values reported in patent publication US20230340137A1, “METHODS, THERAPIES AND USES FOR TREATING CANCER” (PFIZER INC., priority 2020, published 2023).

Legend:
[1] = Phase 1 clinical study NCT03269136, preliminary pharmacokinetic analysis; assay type: in vivo, human; settings: preliminary pharmacokinetic (PK) analysis
Procedure: Therefore, a fixed dose is suitable for the dosing of PF-06863135. Based on the encouraging efficacy data and safety data obtained from Part I of Study, a promising RP2D for Part 2A of the study could be a fixed dose equivalent of 1000 μg/kg (ie, 76 mg) of PF-06863135 either in Q1W or Q2W. A fixed dose equivalent of 600 μg/kg (ie, 44 mg) will likely be used as a priming dose on cycle zero day 1. The initial dose of 44 mg serves as a priming dose and is designed to mitigate the CRS symptoms of the later 76 mg dose. […] Subsequently, the 44 mg (priming) and 76 mg (maintenance) were selected as the single agent RP2D dose. Patient will be administered a single priming dose of 44 mg SC of PF06863135, followed by maintenance dosing of 76 mg Q1W SC or 76 mg Q2W starting 7 days after the single priming dose.

[2] = tested on: adult patients with advanced multiple myeloma; experiment: Phase 1 clinical study NCT03269136, safety (DLT, CRS); assay type: in vivo
Excerpt: This Example illustrates an ongoing Phase 1 open-label, multicenter clinical study of PF-06863135 (BCMA×CD3 bispecific) as monotherapy and in combination with sasanlimab, lenalidomide or pomalidomide, in adult patients with advanced multiple myeloma who have relapsed from or are refractory to standard therapy. The study has been registered on ClinicalTrials.gov with identifier NCT03269136 and was first posted August 2017. Study results for Part 1 of the trial and additional arms for the study are described in this Example.
Part 1 of the Study is the […] single agent dose escalation arm at the dose levels of 0.1, 0.3, 1, 3, 10, 30, and 50 μg/kg Q1W by intravenous (IV) administration, and at the dose levels of 80, 130, 215, 360, 600 and 1000 μg/kg Q1W by subcutaneous (SC) administration. Upon reaching maximum tolerated dose (MTD)/maximum administered dose (MAD), patients can be treated at a dose level selected from the foregoing dose levels described in this paragraph, and below the MTD/MAD fora Q2W administration, both IV and SC, to further support the recommended phase 2 dose (RP2D) decision. For the study, dose limiting toxicity observation period is set at 21 days for Q1W dosing and 28 days for Q2W dosing. The treatment cycle, aka cycle, for Q1W dosing would be 3 weeks, and for Q2W dosing would be four weeks.
Clinical Outcome of Part 1 of the Study. As of 15 Apr. 2020, a total of 23 patients were enrolled in Part 1 of the study and had been treated with PF-06863135 administered intravenously (IV) at 0.1 (N=2), 0.3 (N=3), 1 (N=2), 3 (N=3), 10 (N=2), 30 (N=5), and 50 (N=6) μg/kg. As of Aug. 21, 2020, a total of 30 patients were enrolled in Part 1 of the study and had been treated with PF-06863135 administered subcutaneously (SC) at 80 (N=6), 130 (N=4), 215 (N=4), 360 (N=4), 600 (N=6) and 1000 (N=6) μg/kg. Safety and efficacy data were available for in 23 IV and 30 SC treated patients per IMWG (International Myeloma Working Group) criteria.
Part 1.1 of the Study is an alternative maintenance dose escalation arm for single agent PF-06863135. If excessive toxicity occurs or the maximum tolerated dose (MTD)/maximum administered dose (MAD) is reached at a dose level that is earlier than desired in Part 1 of the study described above, a priming dose will be administered one week prior to the day 1 cycle 1 administration of the dose (maintenance dose) at this dose level and for all subsequent dose levels in the dose escalation that may be initiated for Part 1.1. The priming dosing will be at a lower dose level than the maintenance dose.
Clinical outcome of Part 1.1 of the Study. As of Feb. 4, 2021, a total of 20 patients were enrolled and treatment in Part 1.1 of the Study, with cohort of 7 patients at a 600 μg/kg priming dose followed by 1000 μg/kg Q1W dosing, and a cohort of 13 patients at a 600 μg/kg priming dose followed by 1000 μg/kg Q2W dosing. The CRS in these two cohorts is described in Table 13. Introducing of priming dose decreased medium duration of CRS by 50%, from 4 days to 2 days. The dose frequency in part 1.1 of the study (Q1W v. Q2W) had no impact on the CRS. Patient response of Part 1.1 of the Study is described in Table 14.

[3] = 600 μg/kg priming, 1000 μg/kg Q1W or Q2W SC, N = 20
[4] = all SC treated patients (Part 1)

For “PF-06863135: heterodimeric humanized full-length bispecific antibody, one BCMA binding arm and one CD3 binding arm, modified human IgG2Δa Fc”, the “body weight as factor on PF-06863135 exposure” value [1] was “not a clinically relevant factor”, the “Patients with CRS (number)” value ([2]; 10 μg/kg IV cohort) was 1 and the “patients with CRS (percent)” value ([2]; 10 μg/kg IV cohort) was 50.0%. For the same substance, the “Patients with CRS (number)” value ([2]; 30 μg/kg IV cohort) was 4, the “patients with CRS (percent)” value ([2]; 30 μg/kg IV cohort) was 80.0% and the “patients with dose limiting toxicities (DLTs)” value ([2]; 30 μg/kg IV cohort) was 1 patient. For the same substance, the “patients in whom CRS also occurred after second, third or fourth dose” value ([2]; 50 μg/kg IV) was 3 patients, the “Patients with CRS (number)” value ([2]; 50 μg/kg IV cohort) was 6 and the “patients with CRS (percent)” value ([2]; 50 μg/kg IV cohort) was 100.0%. For the same substance, the “patients with dose limiting toxicities (DLTs)” value ([2]; 50 μg/kg IV cohort) was 1 patient, the “CRS Grade 1 (number of patients)” value ([2]; 80 μg/kg Q1W SC, N = 6) was 2 and the “CRS Grade 2 (number of patients)” value ([2]; 80 μg/kg Q1W SC, N = 6) was 1. For the same substance, the “CRS Mean duration” value ([2]; 80 μg/kg Q1W SC, N = 6) was 1 days, the “Patients with CRS (number)” value ([2]; 80 μg/kg Q1W SC, N = 6) was 3 and the “CRS Grade 1 (number of patients)” value ([2]; 130 μg/kg Q1W SC, N = 4) was 2. The “CRS Grade 2 (number of patients)” value ([2]; 130 μg/kg Q1W SC, N = 4) was 0, the “CRS Mean duration” value ([2]; 130 μg/kg Q1W SC, N = 4) was 3 days and the “Patients with CRS (number)” value ([2]; 130 μg/kg Q1W SC, N = 4) was 2. For the same substance, the “CRS Grade 1 (number of patients)” value ([2]; 215 μg/kg Q1W SC, N = 4) was 3, the “CRS Grade 2 (number of patients)” value ([2]; 215 μg/kg Q1W SC, N = 4) was 0 and the “CRS Mean duration” value ([2]; 215 μg/kg Q1W SC, N = 4) was 3 days. The “Patients with CRS (number)” value ([2]; 215 μg/kg Q1W SC, N = 4) was 3, the “CRS Grade 1 (number of patients)” value ([2]; 360 μg/kg Q1W SC, N = 4) was 2 and the “CRS Grade 2 (number of patients)” value ([2]; 360 μg/kg Q1W SC, N = 4) was 1. The “CRS Mean duration” value ([2]; 360 μg/kg Q1W SC, N = 4) was 1.7 days, the “Patients with CRS (number)” value ([2]; 360 μg/kg Q1W SC, N = 4) was 3 and the “CRS Grade 1 (number of patients)” value ([2]; 600 μg/kg Q1W SC, N = 6) was 4. For the same substance, the “CRS Grade 2 (number of patients)” value ([2]; 600 μg/kg Q1W SC, N = 6) was 2, the “CRS Mean duration” value ([2]; 600 μg/kg Q1W SC, N = 6) was 1.7 days and the “Patients with CRS (number)” value ([2]; 600 μg/kg Q1W SC, N = 6) was 6. The “decrease of duration of CRS by introducing priming dose” value ([2]; 600 μg/kg priming then 1000 μg/kg vs 1000 μg/kg without priming, SC) was 50%, the “CRS Grade 1 (number of patients)” value [2, 3] was 11 and the “CRS Grade 2 (number of patients)” value [2, 3] was 9. For the same substance, the “CRS Mean duration” value [2, 3] was 2 days, the “Patients with CRS (number)” value [2, 3] was 20 and the “patients with CRS (percent)” value [2, 3] was “(100%)”. For the same substance, the “CRS Grade 1 (number of patients)” value ([2]; 1000 μg/kg Q1W SC, N = 6) was 5, the “CRS Grade 2 (number of patients)” value ([2]; 1000 μg/kg Q1W SC, N = 6) was 1 and the “CRS Mean duration” value ([2]; 1000 μg/kg Q1W SC, N = 6) was 4 days. The “Patients with CRS (number)” value ([2]; 1000 μg/kg Q1W SC, N = 6) was 6, the toxicities ([2]; 600 and 1000 μg/kg SC) was “tolerable and manageable” and the “patients with dose limiting toxicities (DLTs)” value ([2]; IV cohorts, 23 patients, febrile neutropenia Grade 3 and electrocardiogram QT prolongation Grade 1) was 2 patients. For the same substance, the “CRS onset after dosing” value ([2]; IV cohorts, each patient with CRS) was at most 2 days, the “Cytokine release syndrome (CRS), rank among adverse events” value ([2]; Part 1 of the study) was “most common adverse event reported” and the “impact of dose frequency (Q1W v. Q2W) on the CRS” value ([2]; Part 1.1, 600 μg/kg priming, 1000 μg/kg SC) was “no impact”. The “patients with dose limiting toxicities (DLTs)” value ([2]; SC cohorts, 30 patients) was “No patients”, the “CRS onset after dosing” value ([2]; SC cohorts, primarily) was at most 2 days and the “Patients with CRS (number)” value ([2]; all IV cohorts) was 11 patients. The “patients with maximum Grade 1 CRS (number)” value ([2]; all IV treated patients) was 6, the “patients with maximum Grade 1 CRS (percent)” value ([2]; all IV treated patients) was 26.1% and the “patients with maximum Grade 2 CRS (number)” value ([2]; all IV treated patients) was 5. For the same substance, the “patients with maximum Grade 2 CRS (percent)” value ([2]; all IV treated patients) was 21.7%, the “patients with maximum Grade 1 CRS (number)” value [2, 4] was 18 and the “patients with maximum Grade 1 CRS (percent)” value [2, 4] was 60.0%. For the same substance, the “patients with maximum Grade 2 CRS (number)” value [2, 4] was 5, the “patients with maximum Grade 2 CRS (percent)” value [2, 4] was 16.7% and the “CRS severity in SC-treated vs IV-treated patients” value ([2]; despite higher overall dose exposure in SC-treated patients) was “less severe”. For the same substance, the “timing of CRS relative to doses” value ([2]; results of Part 1 of the Study) was “primarily occurs after the initial dose”.
